B1: Cell division cycle and apoptosis regulator protein 1, residues 625 to 674; numbered along this chain, Q8IX12 (parent)
chain: ISTPTHWSKLDPKTMKVNDLRKELESRALSSKGLKSQLIARLTKQLKVEE

Variants of: B1
Experiment: abundance fitness (aPCA) (normalised: wild type 0, dead -1); higher = more abundant; growth selection in yeast, the domain comes from the species named
Details: Homo sapiens

Abundance fitness, by site and new letter:
Q37: I -0.513; R -0.168; V 0.002; F -0.256; C -0.04
L10: M -0.107; R -0.593; D -0.748; K -0.538; H -0.701; P -0.606; E -0.704; Q -0.516; I -0.203
L34: P -0.011; N -0.157; Q -0.015; I -0.069; T -0.06; A -0.111; D -0.062
P12: M -0.141; K -0.875; I -0.324; S -0.665; Q -0.749; H -0.865; R -0.89; N -0.965; A -0.142; F -0.762; L -0.189
P4: N -0.133; Q -0.108; F -0.072; E -0.052; H -0.206; W -0.142; K 0.112; G 0.1
E25: K 0.002; M -0.076; Y -0.799; P -1.02; D -0.581; T -0.18
T5: M -0.067; Q -0.091; N -0.42; A 0.026; H -0.234; C -0.483
K16: E -0.066; W -0.354; G -0.059; D -0.068; F -0.191; P -0.15; L -0.061; T -0.142
M15: I -0.711; S -0.75; K -0.668; L -0.172; F -1.02
W7: D -0.197; A -0.088; K -0.142; C -0.112; L -0.223; M -0.122; P -0.101; V -0.157; R -0.178
I39: W -0.573; R -0.013; L -0.183
Q45: S -0.144; K -0.015; E -0.118; T -0.093
K13: F -0.308; N 0.081; C -0.302; I -0.052; T -0.13; R -0.221
K32: G -0.131; W -0.089; F -0.213; L -0.071; D -0.092
D11: L -0.054; S 0.051; G -0.335; E 0.071; Q 0.072; N 0.054; R 0.078; K 0.154
R41: I -0.416; N -0.235; M -0.356; L -0.331; H -0.374; E -0.212; P -0.728; G -0.556
L29: Y -0.384; R -0.213; M -0.021; W -0.746; V -0.476; P -0.86; H -0.286
V48: W -0.178; G -0.154; L -0.06; C -0.113; Q -0.06; M -0.092
I1: G -0.261; Y -0.206; D -0.641; W -0.478; F 0.207; E -0.314
K47: Q -0.196; N -0.106; W -0.334; D -0.204; E -0.23; M -0.266; R -0.083; G -0.128
L46: A -0.549; S -0.676; Q -0.335; D -0.705; I -0.146; N -0.744; G -0.787
R21: W -0.53; Q -0.259; K -0.117; C -0.039; D -1
K35: D -0.212; S -0.288; V -0.264; N -0.212; F -0.419; I -0.249; M -0.244; Y -0.333; Q -0.299
S26: F 0.028; G 0.089
T3: G -0.096; P -0.162; I -0.114; K 0.042
D19: A -0.015; F -0.035; T -0.047; M 0.031; R -0.073

From the Human Domainome abundance scans (Beltran et al. 2025)
